Laboratory results as given in publication PMC10445733.

Tests used:
Test in all cases: GST pulldown (co-precipitation), anti-HA western blot band quantification
[1] = target: ESCRT-I complex: GST–TSG101 (m6) + Myc–VPS28 + HA–VPS37B (m10); conditions: input 1%, value = UMAD1 pulldown band intensity / input band intensity, parent: 2.4
[2] = target: ESCRT-I complex: GST–TSG101 (m6) + Myc–VPS28 + HA–VPS37D (m12); conditions: input 1%, value = UMAD1 pulldown band intensity / input band intensity, parent: 0.3
[3] = target: ESCRT-I complex: GST–TSG101 (m6) + Myc–VPS28 + HA–VPS37C (m11); conditions: input 1%, value = UMAD1 pulldown band intensity / input band intensity, parent: 2.1

## HA–UMAD1 (from UniProt C9J7I0) E130A
[1]; 293T cells co-transfected with GST–TSG101, Myc–VPS28, HA–VPS37B and HA–UMAD1 M4
  response: 0.2
[2]; 293T cells co-transfected with GST–TSG101, Myc–VPS28, HA–VPS37D and HA–UMAD1 M4
  response: 0
[3]; 293T cells co-transfected with GST–TSG101, Myc–VPS28, HA–VPS37C and HA–UMAD1 M4
  response: 0.4

## HA–UMAD1 (from UniProt C9J7I0) F127A
[1]; 293T cells co-transfected with GST–TSG101, Myc–VPS28, HA–VPS37B and HA–UMAD1 M3
  response: 1.2
[2]; 293T cells co-transfected with GST–TSG101, Myc–VPS28, HA–VPS37D and HA–UMAD1 M3
  response: 0
[3]; 293T cells co-transfected with GST–TSG101, Myc–VPS28, HA–VPS37C and HA–UMAD1 M3
  response: 1.2

## HA–UMAD1 (from UniProt C9J7I0) V89A; P90A; F91A
[1]; 293T cells co-transfected with GST–TSG101, Myc–VPS28, HA–VPS37B and HA–UMAD1 M1
  response: 0
[2]; 293T cells co-transfected with GST–TSG101, Myc–VPS28, HA–VPS37D and HA–UMAD1 M1
  response: 0
[3]; 293T cells co-transfected with GST–TSG101, Myc–VPS28, HA–VPS37C and HA–UMAD1 M1
  response: 0

## HA–UMAD1 (from UniProt C9J7I0) Y125A
[1]; 293T cells co-transfected with GST–TSG101, Myc–VPS28, HA–VPS37B and HA–UMAD1 M2
  response: 0.4
[2]; 293T cells co-transfected with GST–TSG101, Myc–VPS28, HA–VPS37D and HA–UMAD1 M2
  response: 0
[3]; 293T cells co-transfected with GST–TSG101, Myc–VPS28, HA–VPS37C and HA–UMAD1 M2
  response: 0.6
